This assay has as its target spop_human SPOP (UniProt O43791).

Sequence of spop_human SPOP (O43791 whole entry): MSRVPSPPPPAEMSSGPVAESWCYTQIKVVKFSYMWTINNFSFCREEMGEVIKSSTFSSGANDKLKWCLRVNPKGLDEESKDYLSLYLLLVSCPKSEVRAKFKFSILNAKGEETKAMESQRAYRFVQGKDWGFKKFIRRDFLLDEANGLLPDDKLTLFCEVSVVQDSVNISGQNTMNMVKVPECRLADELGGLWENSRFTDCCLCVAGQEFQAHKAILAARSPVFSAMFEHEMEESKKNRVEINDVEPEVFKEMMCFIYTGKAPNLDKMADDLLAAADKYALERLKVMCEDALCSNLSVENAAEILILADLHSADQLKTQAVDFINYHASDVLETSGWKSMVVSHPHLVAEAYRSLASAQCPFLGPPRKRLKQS

For “Nuclear receptor coactivator 3 (Homo sapiens), Q9Y6Q9 S101A;S102A”, the “effect of a mutation on the interaction” value is on record as “disrupting interaction”.

As for “Nuclear receptor coactivator 3 (Homo sapiens), Q9Y6Q9 S102A”, the “effect of a mutation on the interaction” value is “disrupting interaction”.

These data come from IntAct's records for PubMed 21577200.
